Experimental data as given in patent US20260265360A1 (NEURACLE SCIENCE, published 2026).
Ends that are not written are not given here.

Key:
FAM19A5 mutant M8 = target: T1, FAM19A5 mutant M8 (human); experiment: ELISA on phage-expressed FAM19A5 mutants M1-M8
T1 chain: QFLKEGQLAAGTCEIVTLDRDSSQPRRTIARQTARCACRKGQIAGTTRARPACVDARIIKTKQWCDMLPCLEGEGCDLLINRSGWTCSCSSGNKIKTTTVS

[1] = target: T2, FAM19A5 epitope fragment F2, BSA-conjugated (human, conjugated to BSA); experiment: ELISA, plate-coated BSA-conjugated FAM19A5 fragments F1-F6
T2 peptide: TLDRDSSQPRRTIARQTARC
Protocol: (§1) Binding of the different anti-FAM19A5 antibodies to the BSA-conjugated peptide fragments F1-F6 was determined by Western blot analysis or ELISA assay. For the Western blot analysis, BSA-conjugated FAM19A5 fragments F1-F6 were separated by SDS polyacrylamide gel electrophoresis and transferred to a nitrocellulose membrane by the standard procedure. The membrane was incubated with the anti-FAM19A5 antibody (e.g., 1-65, […], 1-65-scFv-rabbit Fc-SSS), and the antigen-antibody complexes were detected with the appropriate secondary antibody conjugated with horse-radish peroxidase (anti-rabbit IgG (Fc specific)-HRP, 1:4000 dilution). For the ELISA assay, the following protocol was used. FAM19A5 fragment F1-F6 (diluted to 1 μg/mL in 50 mM carbonate buffer (Biosesang) or to 20 μg/mL for high concentration analysis) were used to coat the wells of 96-well immuno plates (Thermo Scientific) (100 μL/well) overnight at 4° C. and then subsequently washed twice in 1×PBS. The plates were then blocked with the blocking buffer (100 μL/well) for 1 hour at room temperature. During the 1-hour incubation, the relavant anti-FAM19A5 antibodies were diluted to 1 μg/mL (or 20 μg/mL for high concentration analysis) in the diluent buffer. Once the plates were washed (2× using 1×PBS), the diluted anti-FAM19A5 antibodies were added to the appropriate wells, and the plates were incubated at room temperature for 1 hour. The plates were subsequently washed for a total of five times using the washing buffer. Next, the ODP substrate (prepared by dissolving one ODP tablet (O-phenylenediamine Dihydrochloride, Thermo) into 9 mL of sterilized deionized water and 1 mL of 10× stable Peroxide Stable buffer (Theromo)) was added to each of the wells, and the color change reaction was allowed to occur for 10 minutes. This reaction was stopped by adding 100 μL of 2N H2SO4 (Daejung) to the wells. The absorption value of each of the wells was detected at 492 nm using a 96-well microplate reader (Molecular Device).
(§2) As shown in FIGS. 19 and 20A, the anti-FAM19A5 antibody 1-65 bound strongly to fragment F5 as measured by both Western Blot and ELISA assay, respectively.

FAM19A5 mutant M2 = target: T3, FAM19A5 mutant M2 (human); experiment: ELISA on phage-expressed FAM19A5 mutants M1-M8
T3 chain: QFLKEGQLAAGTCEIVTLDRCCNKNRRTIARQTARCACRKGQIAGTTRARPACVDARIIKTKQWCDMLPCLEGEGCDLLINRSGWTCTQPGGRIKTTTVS

[2] = target: T4, Mutant F5 peptide F5-3 (#3) (human); experiment: ELISA, plate-coated F5 mutant peptides
T4 construct: already contained in the entry; also called mutant peptide #3
T4 peptide: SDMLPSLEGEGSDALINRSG

[3] = target: T5, Mutant F5 peptide F5-4 (#4) (human); experiment: ELISA, plate-coated F5 mutant peptides
T5 construct: already contained in the entry; also called mutant peptide #4
T5 peptide: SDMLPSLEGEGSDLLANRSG

[4] = target: T6, Mutant F5 peptide F5-5 (#5) (human); experiment: ELISA, plate-coated F5 mutant peptides
T6 construct: already contained in the entry; also called mutant peptide #5
T6 peptide: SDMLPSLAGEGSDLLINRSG

[5] = target: T7, Mutant F5 peptide F5-2 (#2) (human); experiment: ELISA, plate-coated F5 mutant peptides
T7 construct: already contained in the entry; also called mutant peptide #2
T7 peptide: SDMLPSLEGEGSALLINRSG

[6] = target: T8, Mutant F5 peptide F5-1 (#1) (human); experiment: ELISA, plate-coated F5 mutant peptides
T8 construct: already contained in the entry; also called mutant peptide #1
T8 peptide: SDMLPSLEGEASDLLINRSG

[7] = target: T9, Mutant F5 peptide F5-8 (#8) (human); experiment: ELISA, plate-coated F5 mutant peptides
T9 construct: already contained in the entry; also called mutant peptide #8
T9 peptide: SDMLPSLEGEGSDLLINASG

[8] = target: T10, Mutant F5 peptide F5-7 (#7) (human); experiment: ELISA, plate-coated F5 mutant peptides
T10 construct: already contained in the entry; also called mutant peptide #7
T10 peptide: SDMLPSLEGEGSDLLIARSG

[9] = target: T11, Mutant F5 peptide F5-6 (#6) (human); experiment: ELISA, plate-coated F5 mutant peptides
T11 construct: already contained in the entry; also called mutant peptide #6
T11 peptide: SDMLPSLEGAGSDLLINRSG

FAM19A5 mutant M7 = target: T12, FAM19A5 mutant M7 (human); experiment: ELISA on phage-expressed FAM19A5 mutants M1-M8
T12 chain: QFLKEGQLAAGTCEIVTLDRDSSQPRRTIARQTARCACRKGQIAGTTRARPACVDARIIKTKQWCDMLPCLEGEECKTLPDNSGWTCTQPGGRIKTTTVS

FAM19A5 mutant M6 = target: T13, FAM19A5 mutant M6 (human); experiment: ELISA on phage-expressed FAM19A5 mutants M1-M8
T13 chain: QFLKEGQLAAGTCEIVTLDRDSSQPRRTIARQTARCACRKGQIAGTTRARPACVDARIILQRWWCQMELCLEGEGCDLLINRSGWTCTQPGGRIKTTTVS

[10] = target: T14, FAM19A5 epitope fragment F3, BSA-conjugated (human, conjugated to BSA); experiment: ELISA, plate-coated BSA-conjugated FAM19A5 fragments F1-F6
T14 peptide: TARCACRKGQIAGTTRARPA
Protocol: as §1, §2

[11] = target: T15, FAM19A5 epitope fragment F6, BSA-conjugated (human, conjugated to BSA); experiment: as above
T15 peptide: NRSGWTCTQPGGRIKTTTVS
Protocol: as §1, §2

[12] = target: T16, FAM19A5 epitope fragment F1, BSA-conjugated (human, also: conjugated to BSA); experiment: as above
T16 construct: which number belongs to which fragment is not spelled out
T16 peptide: QLAAGTCEIVTLDR
Protocol: as §1, §2

B1: Anti-FAM19A5 antibody P2-A03 (antibody, V domains shown)
VH: QSVEESGGRLVTPGTPLTLTCTVSGFSLNNYDMSWVRQAPGKGLEYIGFMDTDGSAYYATWAKGRFTISRTSTTVDLKMTSPTTEDTATYFCARRGSSYYGGIDIWGPGTPVTVSL
VL: ELDLTQTPASVSEPVGGTVTIKCQASQSIGGNLAWYQQKPGQPPKLLIYRASTLASGVPSRFKGSGSGTDFTLTISDLECADAATYYCQSPAYDPAAYVGNAFGGGTELEIL
- binding result (FAM19A5 mutant M8): no binding

B2: Anti-FAM19A5 antibody 3-2 (antibody, V domains shown)
VH: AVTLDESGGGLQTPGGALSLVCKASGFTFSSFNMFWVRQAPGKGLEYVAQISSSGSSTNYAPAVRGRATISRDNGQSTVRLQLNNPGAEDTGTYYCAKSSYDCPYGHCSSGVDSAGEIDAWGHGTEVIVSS
VL: ALTQPSSVSANPGETVKITCSGGGSYAGSYYYGWYQQKAPGSAPVTLIYESNKRPSDIPSRFSGSTSGSTATLTITGVQADDEAIYYCGSWDSSNGGIFGAGTTLTVL
notes: also called h3-2; m3-2
- binding result [1]: binds
- binding result (FAM19A5 mutant M2): no binding

B3: Anti-FAM19A5 antibody 1-65 (antibody, V domains shown)
VH: AVTLDESGGGLQTPGGALSLVCKASGFTFSSYQMGWVRQAPGKGLEWVGVINKSGSDTSYGSAVKGRATISRDNGQSTVRLQLNNLRAEDTGTYFCAKGSASYITAATIDAWGHGTEVIVSS
VL: ALTQPSSVSANPGETVKITCSGGGSSGYGYGWYQQKSPSSAPLTVIYWNDKRPSDIPSRFSGSKSGSTHTLTITGVQAEDEAVYFCGNDDYSSDSGYVGVFGAGTTLTVL
notes: also called monoclonal antibody clone 1-65
- binding result [2]: no binding
- binding result [3]: no binding
- binding result [4]: binds
- binding result [5]: no binding
- binding result [6]: binds
- binding result [7]: no binding
- binding result [8]: binds
- binding result [9]: binds
- binding result (FAM19A5 mutant M7): no binding
- binding result (FAM19A5 mutant M6): no binding
- binding result (FAM19A5 mutant M8): no binding

B4: Anti-FAM19A5 antibody P2-C12 (antibody, V domains shown)
VH: QSLEESGGRLVTPGTPLTLTCTVSGFSLSTYAVTWVRQAPGKGLEWIGYINWRGGTSYANWAKGRFTISKTSSTTVDLKMTSPTTEDTATYFCARDASSGAAFGSYGMDPWGPGTLVTVSS
VL: ELDMTQTPSSVSAAVGGTVTIKCQASQSISSYLSWYQQKPGQPPKLLIYEASKLASGVPSRFSGSGYGTEFTLTISDLECADAATYYCQQGYSSTNVWNAFGGGTNVEIK
- binding result [10]: no binding
- binding result [11]: no binding
- binding result [12]: no binding
- binding result [1]: no binding
- binding result [2]: binds
- binding result [3]: binds
- binding result [4]: binds
- binding result [5]: binds
- binding result [6]: no binding
- binding result [7]: no binding
- binding result [8]: binds
- binding result [9]: no binding
- binding result (FAM19A5 mutant M6): no binding

B5: Anti-FAM19A5 antibody 13F7 (antibody, V domains shown)
VH: QVQLQEWGAGLLKPSETLSLTCAINAESFNGYSWTWIRQTPGKGLEWIGEISHFGSANYNPSLKSRATISADKSKNQFSLKLTSVTAVDTAVYYCARALRGTYSRFYYGMDVWGQGTTVTVSS
VL: DIVMTQTPLSLPVAPGEPASISCRSSQSLLHSNGYNYLDWYVQKPGQPPQLLIYLGSNRASGVPDRFSGSGSGTDFTLKISRVEAEDVGVYYCMQARQTPLTFGGGTKVEIK
- binding result (FAM19A5 mutant M7): binds
- binding result (FAM19A5 mutant M8): no binding

B6: Anti-FAM19A5 antibody 13B4 (antibody, V domains shown)
VH: QVQLQESGPGLVKPSGTLSLNCAVSGGSISSSNWWSWVRQPPGKGLEWIGEIYHGGTTNYNPSLKGRVTMSVDKTKNQFSLRLSSVTAVDTAVYYCARWQLVGGLDVWGQGTTVTVSS
VL: SYELTQPLSVSVSPGQTASITCSGDKLGNVYASWYQQKPGQSPTLVIYQDNKRPSGIPERFSGSNSGKTATLTISGTQALDEADYYCQAWDSSTAVFGGGTKLTVL
- binding result (FAM19A5 mutant M7): binds
- binding result (FAM19A5 mutant M6): no binding
- binding result (FAM19A5 mutant M8): no binding
